The numbers were not newly measured in article doi:10.1101/2025.09.11.675682, which cites them from elsewhere.

In general, Kd refers to the constant that tells how readily two partners part at equilibrium.

Holding throughout (experiment): ITC
What all share (settings): cited from earlier work

In series [1] the target is LAT 161-180 (Homo sapiens) (UniProt O43561).
The target in series [2] is SLP-76 157-420 (Homo sapiens) (UniProt Q13094).
Series [3] concerns the target LAT 125-178 (Homo sapiens) (UniProt O43561).
The next series deals with LAT (Homo sapiens) (UniProt O43561).
LAT (Homo sapiens), sequence (O43561 161-180): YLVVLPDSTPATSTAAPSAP
In series [4] the target is SLP-76 159-533 (Homo sapiens) (UniProt Q13094).
SLP-76 159-533 (Homo sapiens), sequence (Q13094 159-533): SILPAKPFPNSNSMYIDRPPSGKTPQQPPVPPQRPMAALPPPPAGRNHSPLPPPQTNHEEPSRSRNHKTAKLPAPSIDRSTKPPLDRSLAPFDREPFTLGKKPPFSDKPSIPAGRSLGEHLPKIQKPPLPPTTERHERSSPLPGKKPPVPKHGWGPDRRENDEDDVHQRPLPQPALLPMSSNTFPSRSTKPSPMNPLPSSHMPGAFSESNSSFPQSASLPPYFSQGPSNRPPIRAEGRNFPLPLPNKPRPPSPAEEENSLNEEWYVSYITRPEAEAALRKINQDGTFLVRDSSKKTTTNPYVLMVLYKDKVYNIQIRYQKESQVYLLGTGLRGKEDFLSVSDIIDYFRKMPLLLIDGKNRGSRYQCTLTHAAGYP
The target in series [5] is LAT 122-140 (Homo sapiens) (UniProt O43561).

SLP-76 157-420 (Homo sapiens), sequence (Q13094 157-420): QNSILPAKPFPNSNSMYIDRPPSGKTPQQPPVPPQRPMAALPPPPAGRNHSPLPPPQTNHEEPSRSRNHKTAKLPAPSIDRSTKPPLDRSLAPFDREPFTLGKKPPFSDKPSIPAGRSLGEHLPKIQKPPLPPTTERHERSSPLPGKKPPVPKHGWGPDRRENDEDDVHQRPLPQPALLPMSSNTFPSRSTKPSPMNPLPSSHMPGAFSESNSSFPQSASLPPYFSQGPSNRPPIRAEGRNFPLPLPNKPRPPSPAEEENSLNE
Gads 1-322 (from UniProt O89100), sequence (O89100 whole entry): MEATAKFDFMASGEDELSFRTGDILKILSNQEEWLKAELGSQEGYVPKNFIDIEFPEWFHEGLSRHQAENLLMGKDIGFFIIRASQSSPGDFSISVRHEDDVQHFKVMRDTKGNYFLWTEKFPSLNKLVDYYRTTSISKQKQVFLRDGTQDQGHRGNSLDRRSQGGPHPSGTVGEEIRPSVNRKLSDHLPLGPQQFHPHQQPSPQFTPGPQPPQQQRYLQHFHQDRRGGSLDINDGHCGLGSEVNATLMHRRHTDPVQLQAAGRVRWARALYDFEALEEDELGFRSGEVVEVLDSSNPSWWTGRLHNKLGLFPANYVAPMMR
LAT 125-178 (Homo sapiens), sequence (O43561 125-178): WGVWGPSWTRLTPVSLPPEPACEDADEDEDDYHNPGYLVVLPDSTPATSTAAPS
PLC-γ1 550-846, sequence (P19174 550-846): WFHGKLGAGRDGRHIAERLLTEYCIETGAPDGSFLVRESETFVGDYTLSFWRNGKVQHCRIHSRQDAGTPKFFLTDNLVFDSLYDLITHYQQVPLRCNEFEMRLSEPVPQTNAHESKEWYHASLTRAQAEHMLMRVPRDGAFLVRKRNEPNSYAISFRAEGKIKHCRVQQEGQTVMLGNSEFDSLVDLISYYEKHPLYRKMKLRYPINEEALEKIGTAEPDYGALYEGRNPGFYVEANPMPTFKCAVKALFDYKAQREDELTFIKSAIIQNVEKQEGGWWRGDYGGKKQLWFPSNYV
Gads 1-322 (from UniProt O75791), sequence (O75791 1-322): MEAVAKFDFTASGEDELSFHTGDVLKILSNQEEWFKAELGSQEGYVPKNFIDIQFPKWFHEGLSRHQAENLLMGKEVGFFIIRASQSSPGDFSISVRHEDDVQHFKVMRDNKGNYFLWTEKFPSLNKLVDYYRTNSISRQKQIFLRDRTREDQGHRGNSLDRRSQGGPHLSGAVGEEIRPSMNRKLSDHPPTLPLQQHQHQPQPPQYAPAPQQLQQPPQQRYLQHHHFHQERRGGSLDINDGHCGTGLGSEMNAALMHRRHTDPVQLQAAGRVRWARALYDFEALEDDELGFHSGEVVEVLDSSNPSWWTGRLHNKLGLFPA
PLC-γ1 1-1219, sequence (P19174 1-1219): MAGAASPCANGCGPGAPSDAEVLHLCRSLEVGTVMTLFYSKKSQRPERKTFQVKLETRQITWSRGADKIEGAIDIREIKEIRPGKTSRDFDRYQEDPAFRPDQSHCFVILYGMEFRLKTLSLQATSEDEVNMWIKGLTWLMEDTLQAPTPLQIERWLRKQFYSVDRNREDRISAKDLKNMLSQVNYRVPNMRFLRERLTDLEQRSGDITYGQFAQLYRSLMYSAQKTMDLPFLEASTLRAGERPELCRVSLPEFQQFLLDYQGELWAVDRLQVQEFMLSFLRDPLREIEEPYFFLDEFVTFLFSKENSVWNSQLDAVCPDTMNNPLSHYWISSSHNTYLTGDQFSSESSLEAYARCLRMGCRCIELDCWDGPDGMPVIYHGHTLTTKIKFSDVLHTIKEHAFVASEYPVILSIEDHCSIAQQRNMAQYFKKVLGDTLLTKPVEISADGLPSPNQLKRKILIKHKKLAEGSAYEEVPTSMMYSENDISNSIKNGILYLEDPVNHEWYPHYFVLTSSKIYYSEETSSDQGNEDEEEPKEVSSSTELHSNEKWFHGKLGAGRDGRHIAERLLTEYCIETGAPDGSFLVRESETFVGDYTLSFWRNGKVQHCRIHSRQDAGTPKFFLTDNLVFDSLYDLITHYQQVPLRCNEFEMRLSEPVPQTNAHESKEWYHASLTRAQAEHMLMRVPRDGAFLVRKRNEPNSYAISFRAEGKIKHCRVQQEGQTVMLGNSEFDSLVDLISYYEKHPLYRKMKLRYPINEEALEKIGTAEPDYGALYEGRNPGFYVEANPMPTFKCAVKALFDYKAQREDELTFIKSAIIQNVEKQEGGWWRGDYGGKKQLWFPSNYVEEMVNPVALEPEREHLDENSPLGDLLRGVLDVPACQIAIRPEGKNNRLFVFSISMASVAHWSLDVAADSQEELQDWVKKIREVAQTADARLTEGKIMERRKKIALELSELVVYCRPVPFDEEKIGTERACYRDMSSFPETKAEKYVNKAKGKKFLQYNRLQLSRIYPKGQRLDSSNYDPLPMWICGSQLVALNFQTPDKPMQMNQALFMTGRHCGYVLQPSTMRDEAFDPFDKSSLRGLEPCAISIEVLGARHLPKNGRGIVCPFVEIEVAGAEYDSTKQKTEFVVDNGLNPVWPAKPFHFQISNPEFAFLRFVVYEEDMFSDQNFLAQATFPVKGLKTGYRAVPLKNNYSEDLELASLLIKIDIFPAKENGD
PLC-γ1, sequence (P19174 2-1290): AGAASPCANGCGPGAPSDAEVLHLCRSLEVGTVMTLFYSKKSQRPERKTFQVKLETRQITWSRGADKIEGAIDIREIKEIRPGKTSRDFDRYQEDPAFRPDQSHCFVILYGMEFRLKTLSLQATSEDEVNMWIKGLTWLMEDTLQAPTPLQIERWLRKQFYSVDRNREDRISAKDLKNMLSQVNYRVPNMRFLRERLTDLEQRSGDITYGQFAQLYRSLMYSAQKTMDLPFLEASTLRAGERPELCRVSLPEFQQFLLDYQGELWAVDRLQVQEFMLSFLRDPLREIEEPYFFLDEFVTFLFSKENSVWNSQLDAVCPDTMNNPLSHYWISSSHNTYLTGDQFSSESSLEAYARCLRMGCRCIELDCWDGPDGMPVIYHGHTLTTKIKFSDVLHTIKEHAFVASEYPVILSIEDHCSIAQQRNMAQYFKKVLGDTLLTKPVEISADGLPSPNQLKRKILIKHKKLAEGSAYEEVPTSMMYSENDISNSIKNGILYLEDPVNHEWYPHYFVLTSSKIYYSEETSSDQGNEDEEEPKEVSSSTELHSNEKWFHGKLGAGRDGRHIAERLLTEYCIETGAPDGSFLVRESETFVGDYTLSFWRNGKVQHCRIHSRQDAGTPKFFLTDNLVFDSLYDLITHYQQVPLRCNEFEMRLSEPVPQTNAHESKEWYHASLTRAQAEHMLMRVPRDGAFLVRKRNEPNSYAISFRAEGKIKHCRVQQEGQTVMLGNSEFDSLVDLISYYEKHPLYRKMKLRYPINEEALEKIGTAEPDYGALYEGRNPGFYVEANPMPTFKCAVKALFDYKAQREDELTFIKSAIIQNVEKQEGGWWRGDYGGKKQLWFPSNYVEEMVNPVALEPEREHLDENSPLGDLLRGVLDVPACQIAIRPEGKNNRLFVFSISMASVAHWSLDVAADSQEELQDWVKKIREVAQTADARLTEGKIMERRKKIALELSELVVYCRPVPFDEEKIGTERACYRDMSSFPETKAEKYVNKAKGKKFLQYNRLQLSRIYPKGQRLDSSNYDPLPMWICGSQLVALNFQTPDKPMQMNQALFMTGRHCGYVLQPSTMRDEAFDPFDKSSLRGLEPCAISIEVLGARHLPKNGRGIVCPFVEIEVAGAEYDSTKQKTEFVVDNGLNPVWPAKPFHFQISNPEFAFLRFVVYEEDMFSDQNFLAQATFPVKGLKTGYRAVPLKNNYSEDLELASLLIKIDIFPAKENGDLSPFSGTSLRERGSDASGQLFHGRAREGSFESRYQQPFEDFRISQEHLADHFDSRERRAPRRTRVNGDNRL

Regarding Gads 1-322 (from UniProt O75791), the Kd is 164 nM in series [1] and 19 nM in series [2].
Take Gads 1-322 (from UniProt O89100): the Kd in series [3] is 213 nM; with LAT (Homo sapiens), 164 nM; in series [2], 19 nM; in series [4], 3.6 nM.
Consider PLC-γ1 1-1219 (from UniProt P19174), for which, in series [3], the Kd was 84 nM.
For PLC-γ1 550-846 (from UniProt P19174), the equilibrium dissociation constant (Kd) in series [5] is 62 nM; in series [2], 3340 nM.
Turning to PLC-γ1 (from UniProt P19174), the Kd in series [2] is 3340 nM.
